Measurements: patent publication US20040023313A1 (Amgen, published 2004)
Blank lines part the entries; values can stand above or below the binder they belong to.

Columns and labels:
[1] = target: T1, CHO human OPGL (hOPGL) 140 (human, UniProt O14788 140-317); experiment: SPR (BIAcore 2000), antibody captured on Protein G, hOPGL 140 in solution 0.25-62 nM, Langmuir 1:1
T1 construct: also called CHO hOPGL 140
T1 sequence (looked up): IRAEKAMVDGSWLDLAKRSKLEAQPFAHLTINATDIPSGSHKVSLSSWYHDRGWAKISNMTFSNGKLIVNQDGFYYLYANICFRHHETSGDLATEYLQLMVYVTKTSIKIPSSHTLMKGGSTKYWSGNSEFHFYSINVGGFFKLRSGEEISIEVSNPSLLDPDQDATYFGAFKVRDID
Experimental: (§1) All experiments were performed on a BlAcore 2000 according to the manufacturer's instructions, with the following modifications. Experiments were performed at room temperature using a running buffer containing 10 mM Hepes (pH 7.4), 0.15M NaCl, 3 mM EDTA, and 0.005% Tween 20. Protein G at 50 μg/mL in 10 mM acetate pH 4.5 was immobilized to a level of 1,600 response units (RU) onto a CM5 Research grade sensor chip (BlAcore, Inc.). Antibodies (8-20 μg/mL) were captured onto the Protein G chip at a level of 300-400 RUs. […] Langmuir 1:1 model was used to determine binding kinetics. Protein G immobilized to 1600 RUs was used as a blank surface. A mouse monoclonal antibody was used as a positive control to show binding to hOPGL 140 and to monitor surface stability.

[2] = target: T2, OPGL used in the RAW 264.7 osteoclast formation assay (Example 6) (human, UniProt O14788 143-317, limits assumed); experiment: cell-based or functional assay
T2 sequence (looked up): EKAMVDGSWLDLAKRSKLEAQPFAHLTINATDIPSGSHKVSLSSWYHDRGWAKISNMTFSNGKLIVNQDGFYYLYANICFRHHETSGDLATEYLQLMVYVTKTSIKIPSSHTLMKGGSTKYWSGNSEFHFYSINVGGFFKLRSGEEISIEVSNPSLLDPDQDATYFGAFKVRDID

[3] = target: T3, E. coli mouse OPGL (mOPGL) 158 (mouse, UniProt O35235 158-316); experiment: SPR (BIAcore 2000), antibody captured on Protein G, mOPGL 158 in solution
T3 construct: kept apart
T3 sequence (looked up): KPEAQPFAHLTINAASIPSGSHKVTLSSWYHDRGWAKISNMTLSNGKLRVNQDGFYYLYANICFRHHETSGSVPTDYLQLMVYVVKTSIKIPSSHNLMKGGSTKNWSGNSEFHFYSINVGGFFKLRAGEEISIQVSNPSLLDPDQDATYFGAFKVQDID
Experimental: as §1

Murine OPGL [158-316] = target: T4, Murine OPGL [158-316] (murine, UniProt O35235 158-316); experiment: ELISA: plate coated with murine OPGL[158-316] at 3 µg/mL, antibody titrated 1.95-2000 ng/ml, goat anti-human IgG (Fc) detection, ABTS, OD405
T4 sequence: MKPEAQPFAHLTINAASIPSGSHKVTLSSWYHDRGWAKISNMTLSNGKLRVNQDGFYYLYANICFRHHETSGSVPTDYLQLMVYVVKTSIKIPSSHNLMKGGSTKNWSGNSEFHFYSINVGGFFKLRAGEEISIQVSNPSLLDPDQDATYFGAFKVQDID
Experimental: (§2) After overnight incubation, the protein solutions were removed from the plate and 200 μL of 5% Chicken Serum (Gibco/BRL Cat# 16110-082) in PBST (PBS plus 0.05% Tween 20) was added to each well of the plate and plates were incubated at room temperature (RT) for 3 hours with agitation. After incubation and blocking, plates were washed 4 times with 1× K-P wash solution in dH₂O (Cat# 50-63-00, Kirkegaard & Perry Laboratories) and dried. […] Plates were incubated for 2.25 hours at room temperature with agitation, washed four times with 1× K-P wash solution and dried. Goat anti-human IgG (Fc) (Jackson ImmunoResearch, Cat# 109-036-098) was diluted 1:3000 in 5% Chicken Serum in PBST and 100 μL was added to each well. […] 100 μL of undiluted ABTS substrate (Kirkegaard & Perry; Cat# 50-66-00) was added to each well and the dish was incubated at room temperature until sufficient blue-green color developed. Color development was stopped by addition of 100 μL 1% SDS. Quantitation of color development was performed using a microtiter plate reader with detection at 405 nm.

[4] = target: T5, FLAG-murine OPGL [158-316]/DE (murine, UniProt O35235 158-316); experiment: ELISA: plate coated with FLAG-murine OPGL[158-316]/DE at 3 µg/mL, antibody titrated 1.95-2000 ng/ml, goat anti-human IgG (Fc) detection, ABTS, OD405
T5 construct: The same paragraph also prints the changes as S231D, V232L, P233A and D235E (T234 unchanged), a numbering two higher than the 229-233 it gives first
Experimental: as §2

koff [1]: 0.000186 s⁻¹
kon [1]: 878000 M⁻¹ s⁻¹
off rate half life t½ [1]: 1.03 h
IC50 (ng/mL), inhibition of OPGL-driven osteoclast formation of RAW 264.7 cells (TRAP activity, OD 405 nM) [2]: 80 ng/mL
binding result [3]: no binding (tested: 0.25-62 nM)
binding result (Murine OPGL [158-316]): no binding (tested: 2000 ng/ml)
B1: 18B2 anti-OPGL antibody (antibody, V domains shown)
VH: EVQLVQSGGGLVHPGGSLRLSCVGSRFTFSAYPMHWVRQAPGKGLEWVSGIGSGGGTNYADSVKGRFTISRDTAKNSLYLQMNSLRAEDMAVYYCARGRNSFDYWGQGTLVTVSS
VL: DIQMTQSPSSLSASVGDRVTITCRASQGISTWLAWYQQKPEKAPKSLIYAASSLQSGVPSRFSGSGSGTDFTLTISSLQPEDFATYYCQQYNSYPPTFGQGTKVEIKR
notes: Fully human IgG1 kappa from HuMab mice

koff [1]: 0.000137 s⁻¹
kon [1]: 2.16e+06 M⁻¹ s⁻¹
off rate half life t½ [1]: 1.41 h
IC50 (ng/mL), inhibition of OPGL-driven osteoclast formation of RAW 264.7 cells (TRAP activity, OD 405 nM) [2]: 352 ng/mL
binding result [3]: no binding (tested: 0.25-62 nM)
EC50 (read off the curve) [4]: ~0.01 µg/mL
binding result (Murine OPGL [158-316]): no binding (tested: 2000 ng/ml)
B4: 16E1 anti-OPGL antibody (antibody, V domains shown)
VH: EVQLVQSGGGLVHPGGSLRLSCAGSGFTFSGHALHWVRQAPGKGLEWVSGIGTHGGTYYADSVKGRFTISRDNAKNSLFLQMNSLSAEDMAVYYCTRRNWGQFDYWGQGTLVTVSS
VL: EIVLTQSPATLSLSPGERATLSCRASQSVSSYLAWYQQKPGQAPRLLIYDASNRATGIPARFSGSGSGTDFTLTISSLEPEDFAVYYCQQRSNWPPYTFGQGTKLEIKR
notes: as for B1

koff [1]: 6.39e-05 s⁻¹
kon [1]: 1.9e+06 M⁻¹ s⁻¹
off rate half life t½ [1]: 3.01 h
IC50 (ng/mL), inhibition of OPGL-driven osteoclast formation of RAW 264.7 cells (TRAP activity, OD 405 nM) [2]: 146 ng/mL
EC50 (read off the curve) [4]: ~0.009 µg/mL
B6: 22B3 anti-OPGL antibody (antibody, human IgG1, kappa, V domains shown)
VH: EVQLVQSGGGLVHPGGSLRLSCEGSGFTFSSNGMHWVRQTPGKGLEWVSGIGTAGGTYYADSVKGRFTISRDNVKKSLYLQMNSLRAEDMAIYYCVRKNWGWFDPWGQGALVTVSS
VL: EIVLTQSPATLSLSPGERATLSCRASQSVNSYLAWFQQKPGQAPRLLIYDASNRATGIPARFSGSGSGTDFTLTISSLEPEDFAIYYCQQRSNWPPFTFGQGTKLEIKR
notes: as for B1

Continued, binder first:

B2: 2E11 anti-OPGL antibody (antibody, V domains shown)
VH: EVQLVQSGGDLVHPGGSLRLSCVGSGFTFSHYPLHWVRQAPGKGLEWISGIHTGGGTYYTDSVKGRFTISSDNAKNSLYLQMNTLRAEDMAVYYCARGRNSFDYWGQGTLVIVSS
VL: DIQMTQSPSSLSASVGDRVTITCRASQGISSWLAWYQQKPEKAPKSLIYAASSLQSGVPSRFSGSGSGTDFTLTISSLQSEDFATYYCQQYNSYPPTFGQGTRLEIKR
notes: Fully human IgG1 kappa from HuMab mice; also called 2 µl 1
koff [1]: 0.000132 s⁻¹
kon [1]: 453000 M⁻¹ s⁻¹
off rate half life t½ [1]: 1.46 h
IC50 (ng/mL), inhibition of OPGL-driven osteoclast formation of RAW 264.7 cells (TRAP activity, OD 405 nM) [2]: 77 ng/mL
binding result [3]: no binding (tested: 0.25-62 nM)
binding result [4]: no binding (tested: 2000 ng/ml)
binding result (Murine OPGL [158-316]): no binding (tested: 2000 ng/ml)

B3: 9H7 anti-OPGL antibody (antibody, V domains shown)
VH: EVQLVQSGGGLVHPGGSLRLSCEGSGFTFSSNGMHWVRQTPGKGLEWVSGIGTAGGTYYADSVKGRFTISRDNVKKSLYLQMNSLRAEDMAIYYCVRKDWGWFDPWGQGALVTVSS
VL: EIVLTQSPATLSLSPGERATLSCRASQSISSYLAWYQQKPGQAPRLLIYDASNRATGIPARFSGSGSGTDFTLTISSLEPEDFAVYYCQQRSKWPPYTFGQGTKLEIKR
notes: Fully human IgG1 kappa from HuMab mice; also called 9H7 anti-OPGL MAb
IC50 (ng/mL), inhibition of OPGL-driven osteoclast formation of RAW 264.7 cells (TRAP activity, OD 405 nM) [2]: 129 ng/mL
binding result [3]: no binding (tested: 0.25-62 nM)
binding result (Murine OPGL [158-316]): no binding (tested: 2000 ng/ml)

B5: 2D8 anti-OPGL antibody (antibody, V domains shown)
VH: EVQLVQSGGGLVHPGGSLRLSCAGSGFTFSSYGMHWVRQAPGKGLEWVSGIGTGGGTYYADSVKGRFTISRDNVKNSLYLQMNSLRAEDMAVYYCARKNWGWFDYWGQGTLVTVSS
VL: EIVLTQSPATLSLSPGERATLSCRASQSISSYLAWYQQKPGQAPRLLIYDASNRATGIPARFSGSGSGTDFTLTISSLEPEDFAVYYCQQRSKWPPYTFGQGTKLEIKR
notes: as for B1
IC50 (ng/mL), inhibition of OPGL-driven osteoclast formation of RAW 264.7 cells (TRAP activity, OD 405 nM) [2]: 611 ng/mL
binding result [3]: no binding (tested: 0.25-62 nM)
binding result (Murine OPGL [158-316]): no binding (tested: 2000 ng/ml)
